From publication PMC7327521

Molecular target: (pY1-CTD)2, FAM-labelled tyrosine-phosphorylated CTD diheptad
Assay: fluorescence polarisation

Spt6-tSH2 R1281E/S1284A/R1285E (from UniProt Q6FLB1 1250-1444) (domain or fragment)
Kd: 48.3 µM
